Assay results as given in patent US20190062438A1 (CSL, published 2019).
Positions count from the first letter of the chain named.

T1: soluble Homo sapiens CD131 comprising a C-terminal 6xHis tag (human, UniProt P32927 17-438)
T1 construct: truncated after Ser438, C-terminal 6xHis; also called shCD131; shβc
T1 sequence: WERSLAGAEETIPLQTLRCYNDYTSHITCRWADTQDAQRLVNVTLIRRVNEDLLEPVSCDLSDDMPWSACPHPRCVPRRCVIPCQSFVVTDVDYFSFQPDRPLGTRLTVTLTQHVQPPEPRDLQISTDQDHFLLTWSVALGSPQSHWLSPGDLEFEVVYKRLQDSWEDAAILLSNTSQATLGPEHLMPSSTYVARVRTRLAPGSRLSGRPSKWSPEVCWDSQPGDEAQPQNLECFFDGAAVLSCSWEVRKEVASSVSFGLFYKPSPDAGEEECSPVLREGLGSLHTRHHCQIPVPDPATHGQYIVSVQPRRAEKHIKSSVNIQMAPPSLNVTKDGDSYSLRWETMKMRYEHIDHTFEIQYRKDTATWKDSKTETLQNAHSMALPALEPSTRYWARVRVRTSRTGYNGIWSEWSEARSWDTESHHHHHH

T2: human CD131 (human, UniProt P32927 17-897)
T2 sequence: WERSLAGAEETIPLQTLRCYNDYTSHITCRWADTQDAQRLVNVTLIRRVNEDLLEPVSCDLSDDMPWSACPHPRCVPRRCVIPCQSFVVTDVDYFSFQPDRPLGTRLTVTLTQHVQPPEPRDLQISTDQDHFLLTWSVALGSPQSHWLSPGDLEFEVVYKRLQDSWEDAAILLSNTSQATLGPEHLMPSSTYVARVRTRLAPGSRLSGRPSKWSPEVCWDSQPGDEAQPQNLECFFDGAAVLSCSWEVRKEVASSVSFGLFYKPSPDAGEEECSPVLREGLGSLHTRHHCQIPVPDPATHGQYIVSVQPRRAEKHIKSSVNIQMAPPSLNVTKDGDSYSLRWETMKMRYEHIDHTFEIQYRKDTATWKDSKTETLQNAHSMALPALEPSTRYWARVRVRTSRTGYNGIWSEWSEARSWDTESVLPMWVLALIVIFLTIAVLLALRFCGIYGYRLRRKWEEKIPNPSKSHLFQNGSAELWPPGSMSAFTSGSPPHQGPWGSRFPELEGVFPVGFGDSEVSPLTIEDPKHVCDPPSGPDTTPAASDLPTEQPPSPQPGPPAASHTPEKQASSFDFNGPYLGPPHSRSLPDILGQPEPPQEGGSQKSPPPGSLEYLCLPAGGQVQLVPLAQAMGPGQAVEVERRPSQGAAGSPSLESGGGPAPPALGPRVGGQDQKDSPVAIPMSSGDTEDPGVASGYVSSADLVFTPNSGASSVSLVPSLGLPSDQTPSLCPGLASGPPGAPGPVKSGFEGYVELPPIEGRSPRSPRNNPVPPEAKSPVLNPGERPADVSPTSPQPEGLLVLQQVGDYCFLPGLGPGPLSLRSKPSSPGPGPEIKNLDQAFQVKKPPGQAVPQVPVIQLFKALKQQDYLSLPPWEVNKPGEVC

B1: 9A2-VR19 Fab (Fab, V domains shown)
VH: EVQLLESGGGLVQPGGSLRLSCAASGFTFSHYHMLWVRQAPGKGLEWVSSIRSSGGFTYYADSVKGRFTISRDNSKNTLYLQMNSLRAEDTAVYYCARFYDSFFDIWGQGTMVTVSS
VL: DIQMTQSPSSVSASVGDRVTITCRASQGISSWLAWYQQKPGKAPKLLIYAASSLQSGVPSRFSGSGSGTDFTLTISSLQPEDFATYYCGIPILGPITFGQGTRLEIKR
notes: recombinant Fab
B2: 9A2-VR32 Fab (Fab, V domains shown)
VH: B1 VH with R52S, S53G, G55V, G56R, F57S
VL: B1 VL with G89Q, I90Q, P91A, I92N, L93S, G94F
notes: recombinant Fab
B3: 9A2-VR36 Fab (Fab, V domains shown)
VH: B1 VH with R52G, S53G, S54D, G55K, G56R, F57Q
VL: B1 VL with G89Q, I90Q, P91A, I92N, L93S, G94F
notes: recombinant Fab
B4: 9A2-VR44 Fab (Fab, V domains shown)
VH: B1 VH with F103H
VL: B1 VL with G89Q, I90Q, P91A, I92N, L93S, G94F
notes: recombinant Fab
B5: 9A2-VR41 Fab (Fab, V domains shown)
VH: B1 VH with R52N, S53G, S54K, G56W, F57T
VL: B1 VL with G89Q, I90Q, P91A, I92N, L93S, G94F
notes: recombinant Fab
B6: 9A2-VR20 Fab (Fab, V domains shown)
VH: B1 VH with S30N, H33R, M34V, L35H
VL: B1 VL with G89Q, I90Q, P91A, I92N, L93S, G94F
notes: recombinant Fab
B7: 9A2-VR21 Fab (Fab, V domains shown)
VH: B1 VH with S30M, H33R, M34V, L35H
VL: B1 VL with G89Q, I90Q, P91A, I92N, L93S, G94F
notes: recombinant Fab
B8: 9A2-VR40 Fab (Fab, V domains shown)
VH: B1 VH with R52N, S53G, S54Y, G56I, F57Q
VL: B1 VL with G89Q, I90Q, P91A, I92N, L93S, G94F
notes: recombinant Fab
B9: 9A2-VR26 Fab (Fab, V domains shown)
VH: B1 VH with S30I, H33R, M34V, L35H
VL: B1 VL with G89Q, I90Q, P91A, I92N, L93S, G94F
notes: recombinant Fab
B10: 9A2-VR35 Fab (Fab, V domains shown)
VH: B1 VH with R52N, S53G, S54F, G56R, F57N
VL: B1 VL with G89Q, I90Q, P91A, I92N, L93S, G94F
notes: recombinant Fab
B11: 9A2-VR42 Fab (Fab, V domains shown)
VH: B1 VH with R52G, S53G, S54D, G55I, G56R, F57Q
VL: B1 VL with G89Q, I90Q, P91A, I92N, L93S, G94F
notes: recombinant Fab
B12: 9A2-VR27 Fab (Fab, V domains shown)
VH: B1 VH with S30T, H33R, M34V, L35H
VL: B1 VL with G89Q, I90Q, P91A, I92N, L93S, G94F
notes: recombinant Fab
B13: 9A2-VR44 (antibody, V domains shown)
VH: B1 VH with F103H
VL: B1 VL with G89Q, I90Q, P91A, I92N, L93S, G94F
B14: 9A2-VR42 (antibody, V domains shown)
VH: B1 VH with R52G, S53G, S54D, G55I, G56R, F57Q
VL: B1 VL with G89Q, I90Q, P91A, I92N, L93S, G94F
B15: 9A2-VR37 (antibody, V domains shown)
VH: B1 VH with R52S, S53G, G55M, G56W, F57S
VL: B1 VL with G89Q, I90Q, P91A, I92N, L93S, G94F
B16: 9A2-VR46 (antibody, V domains shown)
VH: B1 VH with D101S, S102D, F103H, D105R, I106E
VL: B1 VL with G89Q, I90Q, P91A, I92N, L93S, G94F
B17: 9A2-VR40 (antibody, V domains shown)
VH: B1 VH with R52N, S53G, S54Y, G56I, F57Q
VL: B1 VL with G89Q, I90Q, P91A, I92N, L93S, G94F
B18: 9A2-VR45 (antibody, V domains shown)
VH: B1 VH with D101S, S102D, F103N
VL: B1 VL with G89Q, I90Q, P91A, I92N, L93S, G94F
B19: 9A2-VR2 (antibody, V domains shown)
VH: B1 VH
VL: DIQMTQSPSSVSASVGDRVTITCRASQGQRPFVSWYQQKPGKAPKLLIYAASSLQSGVPSRFSGSGSGTDFTLTISSLQPEDFATYYCQQANSFPITFGQGTRLEIKR
B20: 9A2-VR43 (antibody, V domains shown)
VH: B1 VH with D101S, S102D, F103H
VL: B1 VL with G89Q, I90Q, P91A, I92N, L93S, G94F
B21: 9A2-VR47 (antibody, V domains shown)
VH: B1 VH with D101S, S102D, F103H, D105S, I106P
VL: B1 VL with G89Q, I90Q, P91A, I92N, L93S, G94F
B22: 9A2-VR1 (antibody, V domains shown)
VH: B1 VH
VL: B19 VL with Q29I, V33M, S34A
B23: 9A2-VR4 (antibody, V domains shown)
VH: B1 VH
VL: B19 VL with Q29I, S34D
B24: 9A2-VR41 (antibody, V domains shown)
VH: B1 VH with R52N, S53G, S54K, G56W, F57T
VL: B1 VL with G89Q, I90Q, P91A, I92N, L93S, G94F
B25: 9A2-VR49 (antibody, V domains shown)
VH: B1 VH with D101S, S102D, F103H, D105N, I106P
VL: B1 VL with G89Q, I90Q, P91A, I92N, L93S, G94F
B26: 9A2-VR38 (antibody, V domains shown)
VH: B1 VH with R52N, S53G, S54M, G56A, F57T
VL: B1 VL with G89Q, I90Q, P91A, I92N, L93S, G94F
B27: 9A2-VR50 (antibody, V domains shown)
VH: B1 VH with D101S, S102D, F103H, D105A, I106P
VL: B1 VL with G89Q, I90Q, P91A, I92N, L93S, G94F
B28: 9A2-VR3 (antibody, V domains shown)
VH: B1 VH
VL: B19 VL with Q29L, S34N
B29: 9A2-VR48 (antibody, V domains shown)
VH: B1 VH with D101S, S102D, F103H, D105K, I106P
VL: B1 VL with G89Q, I90Q, P91A, I92N, L93S, G94F

Molecular target: T1, soluble Homo sapiens CD131 comprising a …
Experiment: SPR, Fab over captured shCD131
Experimental: Binding kinetics were measured using SPR with a BIAcore™ A-100 instrument (GE Healthcare Life Sciences). An anti-C-terminal Hexa-His antibody (3H3) was immobilized on spots 1, 2, 4 and 5 of each flow cell of a CM-5 sensor chip (GE Healthcare Life Sciences) using amine-coupling chemistry (116). […] As shβc is a dimer, kinetics assays were performed with shβc captured on the sensor surface, and purified Fab injected as the analyte. Avidity effects were avoided by the use of Fab rather than whole IgG.
shCD131 was captured on spots 1 and 5 of each flow cell for 2 minutes at a concentration of 0.4 μg/ml. […] For some analysis purified Fab was injected over each flow cell for 3 minutes and dissociation was monitored for a further 10 minutes. Regeneration of the surface was performed after each cycle with a 40 second injection of 25 mM glycine, pH 2.0. The analysis was performed with Fabs at several concentrations between 100 and 0.31 nM, with each concentration analyzed twice and in random order. The analysis was performed at a flow rate of 30 μl/min in HBS-EP buffer (10 mM Hepes, 150 mM NaCl, 3 mM EDTA, 0.005% Tween 20, pH 7.4) at 37° C. Responses from spots 2 and 4 of each flow cell, (in which shβc was not captured, but otherwise treated identically), were subtracted from those of spots 1 and 5 respectively to produce reference subtracted data. Reference subtracted responses from a blank injection comprising buffer alone were subtracted from the resultant sensorgrams to produce double referenced data suitable for kinetic analysis. Double-referenced sensorgrams were fitted using non-linear regression to a model describing 1:1 kinetics, including a term for mass transport limitation. The Rₘₐₓ value was fitted locally to account for slight deviations in the level of sCD131 captured, with association rate (kₐ), dissociation rate (kd) and equilibrium dissociation constant (KD) fitted globally.

Kd [µM] | koff [s⁻¹] | kon [M⁻¹ s⁻¹] | Binder
0.03 | – | – | B1
0.00034 | – | – | B2
0.0003 | – | – | B3
0.005 | – | – | B4
0.00046 | 0.00076 | 1.7e+06 | B5
0.00058 | – | – | B6
0.00039 | – | – | B7
0.00052 | 0.00066 | 1.3e+06 | B8
0.00023 | 0.00055 | 2.4e+06 | B9
0.00034 | – | – | B10
0.00038 | – | – | B11
0.00047 | 0.0011 | 2.3e+06 | B12

Molecular target: T2, human CD131
Experiment: cell-based or functional assay

IC50 GM-CSF, TF-1 proliferation [µM] | Binder
0.0364 | B13
0.0547 | B14
0.0481 | B15
0.0234 | B16
0.0057 | B17
0.0887 | B18
0.444 | B19
0.0537 | B20
0.0272 | B21
0.294 | B22
0.122 | B23
0.007 | B24
0.0234 | B25
0.005 | B26
0.0465 | B27
0.101 | B28
0.0117 | B29
